Laboratory results: patent US20230357395A1 (published 2023)
Positions count from the first letter of the chain named. Names may count otherwise.

T1: human TRBC1 (hTRBC1), construct BIM0444 (human, UniProt P01850 1-129)
T1 chain: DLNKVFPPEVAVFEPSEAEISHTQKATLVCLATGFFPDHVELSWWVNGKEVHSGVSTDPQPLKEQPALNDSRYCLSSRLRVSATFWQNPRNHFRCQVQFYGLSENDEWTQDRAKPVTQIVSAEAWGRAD

T2: NKp30 on KHYG-1 NK cells (human, UniProt O14931 19-201)
T2 chain: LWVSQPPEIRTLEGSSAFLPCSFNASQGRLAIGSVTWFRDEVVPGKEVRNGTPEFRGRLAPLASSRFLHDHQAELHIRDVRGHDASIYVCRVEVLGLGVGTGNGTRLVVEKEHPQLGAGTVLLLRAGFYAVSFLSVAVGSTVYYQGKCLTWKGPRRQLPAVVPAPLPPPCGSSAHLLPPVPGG

T3: TRBC1 on TRBC1+ Jurkat cells (human, UniProt P01850 1-176)
T3 chain: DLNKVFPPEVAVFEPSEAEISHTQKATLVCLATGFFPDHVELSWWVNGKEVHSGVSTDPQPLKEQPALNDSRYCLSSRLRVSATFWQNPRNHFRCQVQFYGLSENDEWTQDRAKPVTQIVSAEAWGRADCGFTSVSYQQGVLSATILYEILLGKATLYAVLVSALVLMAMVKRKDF

B1: JOVI.1 Fab BIM0446 (Fab, V domains shown)
VH: EVRLQQSGPDLIKPGASVKMSCKASGYTFTGYVMHWVKQRPGQGLEWIGFINPYNDDIQSNERFRGKATLTSDKSSTTAYMELSSLTSEDSAVYYCARGAGYNFDGAYRFFDFWGQGTTLTVSS
VL: DVVMTQSPLSLPVSLGDQASISCRSSQRLVHSNGNTYLHWYLQKPGQSPKLLIYRVSNRFPGVPDRFSGSGSGTDFTLKISRVEAEDLGIYFCSQSTHVPYTFGGGTKLEIK
B2: humanized JOVI.1 Fab BIM0460 (Fab, V domains shown)
VH: QVQLVQSGAEVKKPGSSVKVSCKASGYTFTGYVMHWVRQAPGQGLEWMGFINPYNDDIQSNERFRGRVTITSDKSTTTAYMELSSLRSEDTAVYYCARGAGYNFDGAYRFFDFWGQGTLVTVSS
VL: B1 VL with S14T, D17Q, Q18P, L42Q, K44R, K50R, L88V, I90V, L109V
B3: BJM1042 (anti-TRBC1/NKp30 bispecific antibody, N297A) (bispecific antibody)
heavy: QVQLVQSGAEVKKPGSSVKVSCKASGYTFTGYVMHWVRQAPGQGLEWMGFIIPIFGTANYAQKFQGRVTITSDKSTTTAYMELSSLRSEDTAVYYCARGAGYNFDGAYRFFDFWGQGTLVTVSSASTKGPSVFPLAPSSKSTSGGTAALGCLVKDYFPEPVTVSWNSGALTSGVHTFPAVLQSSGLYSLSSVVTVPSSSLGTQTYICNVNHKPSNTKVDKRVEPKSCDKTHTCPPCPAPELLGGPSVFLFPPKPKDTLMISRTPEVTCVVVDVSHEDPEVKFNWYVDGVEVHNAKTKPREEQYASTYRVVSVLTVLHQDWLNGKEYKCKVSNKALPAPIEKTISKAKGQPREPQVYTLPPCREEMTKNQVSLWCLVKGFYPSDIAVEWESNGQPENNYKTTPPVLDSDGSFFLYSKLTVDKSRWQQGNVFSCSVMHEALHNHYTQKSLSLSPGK
light: DVVMTQSPLSLPVTLGQPASISCRSSQRLVHSNGNTYLHWYQQRPGQSPRLLIYRVSNRFPGVPDRFSGSGSGTDFTLKISRVEAEDVGVYFCSQSTHVPYTFGGGTKVEIKRTVAAPSVFIFPPSDEQLKSGTASVVCLLNNFYPREAKVQWKVDNALQSGNSQESVTEQDSKDSTYSLSSTLTLSKADYEKHKVYACEVTHQGLSSPVTKSFNRGEC
scFv: EIQLLESGGGLVQPGGSLRLSCAVSGFSITTTGYHWNWVRQAPGKGLEWVGYIYSSGSTSYNPSLKSRFTISRDTSKNTFYLQMNSLRAEDTAVYYCARGDWHYFDYWGQGTMVTVSSGGGGSGGGGSGGGGSGGGGSDSVTTQSPLSLPVTLGQPASISCSGEKLSDKYVHWYQQRPGQSPRMLIYENDRRPSGVPDRFSGSNSGNDATLKISRVEAEDVGVYFCQFWDSTNSAVFGGGTKVEIKDKTHTCPPCPAPELLGGPSVFLFPPKPKDTLMISRTPEVTCVVVDVSHEDPEVKFNWYVDGVEVHNAKTKPREEQYASTYRVVSVLTVLHQDWLNGKEYKCKVSNKALPAPIEKTISKAKGQPREPQVCTLPPSREEMTKNQVSLSCAVKGFYPSDIAVEWESNGQPENNYKTTPPVLDSDGSFFLVSKLTVDKSRWQQGNVFSCSVMHEALHNHYTQKSLSLSPGK
B4: BJM1048 (antibody)
chain 1: not shown
chain 2: B3 light
chain 3: EIQLLESGGGLVQPGGSLRLSCAVSGFSITTTGYHWNWVRQAPGKGLEWVGYIYSSGSTSYNPSLKSRFTISRDTSKNTFYLQMNSLRAEDTAVYYCARGDWHYFDYWGQGTMVTVSSGGGGSGGGGSGGGGSGGGGSSSETTQPPSVSVSPGQTASITCSGEKLSDKYVHWYQQKPGQSPVMVIYENDRRPSGIPERFSGSNSGNTATLTISGTQAMDEADYFCQFWDSTNSAVFGGGTQLTVLDKTHTCPPCPAPELLGGPSVFLFPPKPKDTLMISRTPEVTCVVVDVSHEDPEVKFNWYVDGVEVHNAKTKPREEQYASTYRVVSVLTVLHQDWLNGKEYKCKVSNKALPAPIEKTISKAKGQPREPQVCTLPPSREEMTKNQVSLSCAVKGFYPSDIAVEWESNGQPENNYKTTPPVLDSDGSFFLVSKLTVDKSRWQQGNVFSCSVMHEALHNHYTQKSLSLSPGK
B5: BJM1038 (antibody)
chain 1: not shown
chain 2: B3 light
chain 3: B4 chain 3
B6: BJM1052 (anti-TRBC1/NKp30 bispecific antibody, N297A) (bispecific antibody)
heavy: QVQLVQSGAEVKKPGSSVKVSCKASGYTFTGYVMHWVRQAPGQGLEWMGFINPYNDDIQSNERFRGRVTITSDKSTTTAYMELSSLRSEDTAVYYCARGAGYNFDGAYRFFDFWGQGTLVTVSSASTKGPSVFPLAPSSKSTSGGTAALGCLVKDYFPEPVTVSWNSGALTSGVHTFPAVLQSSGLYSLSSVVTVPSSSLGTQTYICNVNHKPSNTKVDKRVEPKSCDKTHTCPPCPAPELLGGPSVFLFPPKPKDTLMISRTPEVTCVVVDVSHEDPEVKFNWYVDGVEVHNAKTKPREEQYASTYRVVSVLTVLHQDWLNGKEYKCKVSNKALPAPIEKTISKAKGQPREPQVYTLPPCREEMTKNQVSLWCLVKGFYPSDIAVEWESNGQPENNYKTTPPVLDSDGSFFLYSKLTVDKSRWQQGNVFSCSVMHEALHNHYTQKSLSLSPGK
light: B3 light
scFv: B3 scFv
B7: BJM1079 (BJM0411 Parental) (antibody, V domains shown)
VH: EIQLLESGGGLVQPGGSLRLSCAVSGFSITTTGYHWNWVRQAPGKGLEWVGYIYSSGSTSYNPSLKSRFTISRDTSKNTFYLQMNSLRAEDTAVYYCARGDWHYFDYWGQGTMVTVSS
VL: DSVTTQSPLSLPVTLGQPASISCSGEKLSDKYVHWYQQRPGQSPRMLIYENDRRPSGVPDRFSGSNSGNDATLKISRVEAEDVGVYFCQFWDSTNSAVFGGGTKVEIK
B8: BJM1078 (BJM0407 Parental) (antibody, V domains shown)
VH: B7 VH
VL: SSETTQPPSVSVSPGQTASITCSGEKLSDKYVHWYQQKPGQSPVMVIYENDRRPSGIPERFSGSNSGNTATLTISGTQAMDEADYFCQFWDSTNSAVFGGGTQLTVL
B9: BJM0889 (single arm anti-TRBC1 antibody, N297A) (antibody, V domains shown)
VH: B2 VH
VL: B1 VL with S14T, D17Q, Q18P, L42Q, K44R, K50R, L88V, I90V, L109V

Biological target: T1, human TRBC1 (hTRBC1), construct BIM0444
Assay: Octet BLI

Going from B1 to B2, the Kd rises from 4 nM to 9 nM (2.2-fold). The first binds more tightly here.

Biological target: T2, NKp30 on KHYG-1 NK cells
Assay: FACS cell binding

B3 and B4 are within 1.5-fold of each other in EC50: 9.48 nM for the first, 7.66 nM for the second.

B5 and B6 are within 1.5-fold of each other in EC50: 7.99 nM for the first, 6.61 nM for the second.

B7 and B8 are within 1.5-fold of each other in EC50: 5.36 nM for the first, 5.2 nM for the second.

Biological target: T3, TRBC1 on TRBC1+ Jurkat cells
Assay: FACS cell binding

Going from B3 to B9, the EC50 falls from 61 nM to 5.26 nM (12-fold). The second is the more potent here.

Going from B4 to B5, the EC50 rises from 8.29 nM to 60.5 nM (7.3-fold). The first is the more potent here.

In the case of B6, the EC50 is reported as 4.55 nM.
